Laboratory results: publication PMC9768791 (2022)

Experiments:
Experiment in all cases: activation reporter or marker
[1] = target: T1, ACEp.V535G peptide on HLA-B*57:01 (human)
T1 peptide: VSFGLQFQF

[2] = target: T2, BRPF1p.L634F peptide on HLA-A*24:02 (human)
T2 peptide: EMQLTPFFI

[3] = target: T3, ETNK1p.Q233L peptide on HLA-C*07:01 (human)
T3 peptide: FRLIARLL

[4] = target: T4, FCGRTp.A241T peptide on HLA-C*06:02 (human)
T4 peptide: LRFLRNGLT

[5] = target: T5, CDADC1p.R148Q peptide on HLA-A*24:02 (human)
T5 peptide: AGVNQISYW

[6] = target: T6, SDK1p.S1290L peptide on HLA-A*02:01 (human)
T6 peptide: SLTQILLTWT

[7] = target: T7, RASA3p.A654V peptide on HLA-A*02:01 (human)
T7 peptide: FQVIQPERV

[8] = target: T8, PAPSS1p.Q144H peptide on HLA-C*07:02 (human)
T8 peptide: ARHIHEGASL

[9] = target: T9, USP34p.S2706F peptide on HLA-C*07:02 (human)
T9 peptide: FRSTRFLHI

[10] = target: T10, MAN2A2p.R877W peptide on HLA-C*04:01 (human)
T10 peptide: IWDYVNKELA

[11] = target: T11, KBTBD3p.T293A peptide on HLA-B*35:01 (human)
T11 peptide: RPSTAEKYIF

[12] = target: T12, PRCCp.V145L peptide on HLA-C*07:01 (human)
T12 peptide: KRKEPLKI

[13] = target: T13, MED12Lp.T462K peptide on HLA-C*07:02 (human)
T13 peptide: SRVLHKLEV

[14] = target: T14, WDFY3p.L512H peptide on HLA-A*11:01 (human)
T14 peptide: VMVNHLHKY

B1: TCR901 (TCR, V domains shown)
Valpha: QKEVEQDPGPLSVPEGAIVSLNCTYSNSAFQYFMWYRQYSRKGPELLMYTYSSGNKEDGRFTAQVDKSSKYISLFIRDSQPSDSATYLCAMTRGGGGNKLTFGTGTQLKVEL
Vbeta: NAGVTQTPKFRVLKTGQSMTLLCAQDMNHEYMYWYRQDPGMGLRLIHYSVGEGTTAKGEVPDGYNVSRLKKQNFLLGLESAAPSQTSVYFCASSYGGPEQFFGPGTRLTVL
[1]
  binding result: recognises

B2: TCR955 (TCR, V domains shown)
Valpha: AQTVTQSQPEMSVQEAETVTLSCTYDTSESDYYLFWYKQPPSRQMILVIRQEAYKQQNATENRFSVNFQKAAKSFSLKISDSQLGDAAMYFCAYRRRNSGYALNFGKGTSLLVTP
Vbeta: DAGVTQSPTHLIKTRGQQVTLRCSPKSGHDTVSWYQQALGQGPQFIFQYYEEEERQRGNFPDRFSGHQFPNYSSELNVNALLLGDSALYLCASSLRVWSSYEQYFGPGTRLTVT
[2]
  binding result: recognises

B3: TCR1285 (TCR, V domains shown)
Valpha: DAKTTQPPSMDCAEGRAANLPCNHSTISGNEYVYWYRQIHSQGPQYIIHGLKNNETNEMASLIITEDRKSSTLILPHATLRDTAVYYCIVRLAPYSGNTPLVFGKGTRLSVIA
Vbeta: DAGVTQSPTHLIKTRGQQVTLRCSPKSGHDTVSWYQQALGQGPQFIFQYYEEEERQRGNFPDRFSGHQFPNYSSELNVNALLLGDSALYLCASISGFMGLMNTEAFFGQGTRLTVV
[3]
  binding result: recognises

B4: TCR1059 (TCR, V domains shown)
Valpha: SQQGEEDPQALSIQEGENATMNCSYKTSINNLQWYRQNSGRGLVHLILIRSNEREKHSGRLRVTLDTSKKSSSLLITASRAADTASYFCATDEGNFVFGPGTRLSVLP
Vbeta: NAGVTQTPKFQVLKTGQSMTLQCAQDMNHEYMSWYRQDPGMGLRLIHYSVGAGITDQGEVPNGYNVSRSTTEDFPLRLLSAAPSQTSVYFCASSPGQRETQYFGPGTRLLVL
[4]
  binding result: recognises

B5: TCR1057 (TCR, V domains shown)
Valpha: GENVEQHPSTLSVQEGDSAVIKCTYSDSASNYFPWYKQELGKRPQLIIDIRSNVGEKKDQRIAVTLNKTAKHFSLHITETQPEDSAVYFCAASRGPAGGTSYGKLTFGQGTILTVHP
Vbeta: DTEVTQTPKHLVMGMTNKKSLKCEQHMGHRAMYWYKQKAKKPPELMFVYSYEKLSINESVPSRFSPECPNSSLLNLHLHALQPEDSALYLCASSQDAWWLSQPQHFGDGTRLSIL
[5]
  binding result: recognises

B6: TCR1036 (TCR, V domains shown)
Valpha: RKEVEQDPGPFNVPEGATVAFNCTYSNSASQSFFWYRQDCRKEPKLLMSVYSSGNEDGRFTAQLNRASQYISLLIRDSKLSDSATYLCVVNMYNQGGKLIFGQGTELSVKP
Vbeta: NAGVTQTPKFQVLKTGQSMTLQCAQDMNHEYMSWYRQDPGMGLRLIHYSVGAGITDQGEVPNGYNVSRSTTEDFPLRLLSAAPSQTSVYFCASSYSGPNYEQYFGPGTRLTVT
[6]
  binding result: recognises

B7: TCR1312 (TCR, V domains shown)
Valpha: QKEVEQNSGPLSVPEGAIASLNCTYSDRGSQSFFWYRQYSGKSPELIMFIYSNGDKEDGRFTAQLNKASQYVSLLIRDSQPSDSATYLCAVNRAGGSYIPTFGRGTSLIVHP
Vbeta: DAGVIQSPRHEVTEMGQEVTLRCKPISGHDYLFWYRQTMMRGLELLIYFNNNVPIDDSGMPEDRFSAKMPNASFSTLKIQPSEPRDSAVYFCASSQGQGVLGMKKLFFGSGTQLSVL
[7]
  binding result: recognises

B8: TCR952 (TCR, V domains shown)
Valpha: SQQGEEDPQALSIQEGENATMNCSYKTSINNLQWYRQNSGRGLVHLILIRSNEREKHSGRLRVTLDTSKKSSSLLITASRAADTASYFCATDEVGDMRFGAGTRLTVKP
Vbeta: EPEVTQTPSHQVTQMGQEVILRCVPISNHLYFYWYRQILGQKVEFLVSFYNNEISEKSEIFDDQFSVERPDGSNFTLKIRSTKLEDSAMYFCAISGSLYNEQFFGPGTRLTVL
[8]
  binding result: recognises

B9: TCR903 (TCR, V domains shown)
Valpha: AQKVTQAQTEISVVEKEDVTLDCVYETRDTTYYLFWYKQPPSGELVFLIRRNSFDEQNEISGRYSWNFQKSTSSFNFTITASQVVDSAVYFCALSEETDRGSTLGRLYFGRGTQLTVWP
Vbeta: DTAVSQTPKYLVTQMGNDKSIKCEQNLGHDTMYWYKQDSKKFLKIMFSYNNKELIINETVPNRFSPKSPDKAHLNLHINSLELGDSAVYFCASSQDGGFEQFFGPGTRLTVL
[9]
  binding result: recognises

B10: TCR721 (TCR, V domains shown)
Valpha: AQKVTQAQTEISVVEKEDVTLDCVYETRDTTYYLFWYKQPPSGELVFLIRRNSFDEQNEISGRYSWNFQKSTSSFNFTITASQVVDSAVYFCALSEATGFGNEKLTFGTGTRLTIIP
Vbeta: DAGITQSPRHKVTETGTPVTLRCHQTENHRYMYWYRQDPGHGLRLIHYSYGVKDTDKGEVSDGYSVSRSKTEDFLLTLESATSSQTSVYFCAISDPRDSYEQYFGPGTRLTVT
[10]
  binding result: recognises

B11: TCR1364 (TCR, V domains shown)
Valpha: GQNIDQPTEMTATEGAIVQINCTYQTSGFNGLFWYQQHAGEAPTFLSYNVLDGLEEKGRFSSFLSRSKGYSYLLLKELQMKDSASYLCAVKGDYKLSFGAGTTVTVRA
Vbeta: DTGVSQNPRHKITKRGQNVTFRCDPISEHNRLYWYRQTLGQGPEFLTYFQNEAQLEKSRLLSDRFSAERPKGSFSTLEIQRTEQGDSAMYLCASSDRSYNEQFFGPGTRLTVL
[11]
  binding result: recognises

B12: TCR775 (TCR, V domains shown)
Valpha: GQNIDQPTEMTATEGAIVQINCTYQTSGFNGLFWYQQHAGEAPTFLSYNVLDGLEEKGRFSSFLSRSKGYSYLLLKELQMKDSASYLCAAHSGGYQKVTFGTGTKLQVIP
Vbeta: EPEVTQTPSHQVTQMGQEVILRCVPISNHLYFYWYRQILGQKVEFLVSFYNNEISEKSEIFDDQFSVERPDGSNFTLKIRSTKLEDSAMYFCASSEDEQEYSYEQYFGPGTRLTVT
[12]
  binding result: recognises

B13: TCR915 (TCR, V domains shown)
Valpha: AQKVTQAQTEISVVEKEDVTLDCVYETRDTTYYLFWYKQPPSGELVFLIRRNSFDEQNEISGRYSWNFQKSTSSFNFTITASQVVDSAVYFCALSDHNTDKLIFGTGTRLQVFP
Vbeta: NAGVTQTPKFRILKIGQSMTLQCTQDMNHNYMYWYRQDPGMGLKLIYYSVGAGITDKGEVPNGYNVSRSTTEDFPLRLELAAPSQTSVYFCASISDSYNEQFFGPGTRLTVL
[13]
  binding result: recognises

B14: TCR720 (TCR, V domains shown)
Valpha: LAKTTQPISMDSYEGQEVNITCSHNNIATNDYITWYQQFPSQGPRFIIQGYKTKVTNEVASLFIPADRKSSTLSLPRVSLSDTAVYYCLVIEAGNNRKLIWGLGTSLAVNP
Vbeta: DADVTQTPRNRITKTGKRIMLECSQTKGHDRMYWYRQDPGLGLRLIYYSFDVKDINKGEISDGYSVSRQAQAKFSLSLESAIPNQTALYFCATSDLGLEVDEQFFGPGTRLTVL
[14]
  binding result: recognises
